Common to all, as to test: SPR; BIAcore T100; EzrA or GpsB covalently coupled through amino groups to a CM5 chip; analytes 0.002-1 µM at 30 µL/min in 10 mM HEPES pH 7.4, 150 mM NaCl, 0.005% surfactant; apparent KD from the equilibrium signal (Req); triplicate
On the technique in general: In SPR one partner is held on a chip, and binding of the other changes the refractive index at the surface.

The target in experiment [1] is EzrA without its N-terminal transmembrane domain (Streptococcus pneumoniae (strain R800)).
The target in another experiment is T1, DivIVA (Streptococcus pneumoniae (strain R800), UniProt Q8CWP9 1-262).
T1 construct: DivIVA of Streptococcus pneumoniae, PCR from chromosomal DNA of strain R800, cloned in pETPhos; also called Spn-DivIVA; DivVA; source: E. coli BL21(DE3), purified (Ni-NTA agarose)
T1 sequence (looked up): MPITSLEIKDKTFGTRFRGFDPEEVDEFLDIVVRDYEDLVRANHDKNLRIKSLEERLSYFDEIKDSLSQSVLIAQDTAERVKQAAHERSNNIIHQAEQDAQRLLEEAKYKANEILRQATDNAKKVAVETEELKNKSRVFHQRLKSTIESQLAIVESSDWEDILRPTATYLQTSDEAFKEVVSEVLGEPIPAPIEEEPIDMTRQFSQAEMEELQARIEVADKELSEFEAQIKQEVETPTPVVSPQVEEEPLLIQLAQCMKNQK
To be noted: both partners purified.

Experiment [2] addresses T2, inactive cytoplasmic domain of StkP-K42R (Streptococcus pneumoniae (strain R800), UniProt Q8DNS0 1-342, K42R).
T2 construct: also called StkP-K42R cytoplasmic domain; source: E. coli BL21(DE3), purified (Ni-NTA agarose)
T2 sequence: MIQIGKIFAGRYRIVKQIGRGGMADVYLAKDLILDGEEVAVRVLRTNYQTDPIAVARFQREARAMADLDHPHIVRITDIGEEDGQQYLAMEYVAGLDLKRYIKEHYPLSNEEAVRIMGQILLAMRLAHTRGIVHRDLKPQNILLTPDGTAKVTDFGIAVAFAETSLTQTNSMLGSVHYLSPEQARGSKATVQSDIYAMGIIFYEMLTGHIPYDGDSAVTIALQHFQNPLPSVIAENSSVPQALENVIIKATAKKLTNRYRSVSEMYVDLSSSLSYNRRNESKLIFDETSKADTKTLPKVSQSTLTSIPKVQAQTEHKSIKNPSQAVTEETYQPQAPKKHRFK
To be noted: both partners purified.

Sequence of EzrA without its N-terminal transmembrane domain (Streptococcus pneumoniae (strain R800)) (B1IAY5 28-575 limits assumed): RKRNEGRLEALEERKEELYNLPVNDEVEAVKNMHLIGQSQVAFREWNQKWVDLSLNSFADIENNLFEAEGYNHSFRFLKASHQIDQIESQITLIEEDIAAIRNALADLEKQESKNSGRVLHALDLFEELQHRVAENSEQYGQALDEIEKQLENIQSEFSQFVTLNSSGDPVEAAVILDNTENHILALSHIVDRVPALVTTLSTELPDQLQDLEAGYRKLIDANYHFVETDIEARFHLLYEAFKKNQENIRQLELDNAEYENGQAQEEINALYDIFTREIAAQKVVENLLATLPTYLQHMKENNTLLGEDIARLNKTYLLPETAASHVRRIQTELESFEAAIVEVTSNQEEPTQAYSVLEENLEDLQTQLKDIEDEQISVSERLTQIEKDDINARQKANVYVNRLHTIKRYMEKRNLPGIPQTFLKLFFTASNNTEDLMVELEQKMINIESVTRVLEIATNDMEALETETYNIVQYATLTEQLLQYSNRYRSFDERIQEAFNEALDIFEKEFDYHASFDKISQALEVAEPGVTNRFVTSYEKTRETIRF

Consider “GpsB (from UniProt C1CIN3 1-109) (natural protein)”, for which the Kd in experiment [1] is 770 nM.
Still for that read-out and setting: with “FtsZ (from UniProt A0A0H2ZNE0 1-419) (natural protein)” the figure was 295 nM.

B1: GpsB (natural protein, Streptococcus pneumoniae (strain R800), UniProt C1CIN3 1-109, looked up)
chain: MASIIFSAKDIFEQEFGREVRGYNKVEVDEFLDDVIKDYETYAALVKSLRQEIADLKEELTRKPKPSPVQAEPLEAAITSSMTNFDILKRLNRLEKEVFGKQILDNSDF
notes: GpsB of Streptococcus pneumoniae, PCR from chromosomal DNA of strain R800, cloned in pETPhos; In the SPR either coupled to the chip by its amino groups or injected as analyte; also called Spn-GpsB; source: E. coli BL21(DE3), purified (Ni-NTA agarose)
Take B1: the Kd worked out at 85 ± 14 nM in the experiment with DivIVA and 500 ± 60 nM in experiment [2].

B2: DivIVA (natural protein)
chain: T1 sequence (looked up)
For B2, the Kd in experiment [1] is 530 nM.

For the origin of these results see article PMC3983041, “Interplay of the Serine/Threonine-Kinase StkP and the Paralogs DivIVA and GpsB in Pneumococcal Cell Elongation and Division” (PLoS Genetics, 2014).
